In patent EP4814014A1, “BINDING MOLECULE AND ANTIBODY-DRUG CONJUGATE AND USE THEREOF” (priority 2023, dated 2025):
Positions count from the first letter of the chain named. Blank lines part the entries; values can stand above or below the binder they belong to.

Columns and labels:
[1] = molecular target: T1, human cMet on cells (human, UniProt P08581 25-1390); test: FACS competition on EBC-1 cells, HGF-His as the ligand detected, VHH-Fc from 100 nM
T1 construct: whole, on cells; Cell lines: CHO-S-cMet, CHOK1-hucMet, EBC-1, MKN45, NCI-H1975; the cell line is named under assay; also called CHO-S-cMet; CHOK1-hucMet
T1 sequence (P08581 25-1390): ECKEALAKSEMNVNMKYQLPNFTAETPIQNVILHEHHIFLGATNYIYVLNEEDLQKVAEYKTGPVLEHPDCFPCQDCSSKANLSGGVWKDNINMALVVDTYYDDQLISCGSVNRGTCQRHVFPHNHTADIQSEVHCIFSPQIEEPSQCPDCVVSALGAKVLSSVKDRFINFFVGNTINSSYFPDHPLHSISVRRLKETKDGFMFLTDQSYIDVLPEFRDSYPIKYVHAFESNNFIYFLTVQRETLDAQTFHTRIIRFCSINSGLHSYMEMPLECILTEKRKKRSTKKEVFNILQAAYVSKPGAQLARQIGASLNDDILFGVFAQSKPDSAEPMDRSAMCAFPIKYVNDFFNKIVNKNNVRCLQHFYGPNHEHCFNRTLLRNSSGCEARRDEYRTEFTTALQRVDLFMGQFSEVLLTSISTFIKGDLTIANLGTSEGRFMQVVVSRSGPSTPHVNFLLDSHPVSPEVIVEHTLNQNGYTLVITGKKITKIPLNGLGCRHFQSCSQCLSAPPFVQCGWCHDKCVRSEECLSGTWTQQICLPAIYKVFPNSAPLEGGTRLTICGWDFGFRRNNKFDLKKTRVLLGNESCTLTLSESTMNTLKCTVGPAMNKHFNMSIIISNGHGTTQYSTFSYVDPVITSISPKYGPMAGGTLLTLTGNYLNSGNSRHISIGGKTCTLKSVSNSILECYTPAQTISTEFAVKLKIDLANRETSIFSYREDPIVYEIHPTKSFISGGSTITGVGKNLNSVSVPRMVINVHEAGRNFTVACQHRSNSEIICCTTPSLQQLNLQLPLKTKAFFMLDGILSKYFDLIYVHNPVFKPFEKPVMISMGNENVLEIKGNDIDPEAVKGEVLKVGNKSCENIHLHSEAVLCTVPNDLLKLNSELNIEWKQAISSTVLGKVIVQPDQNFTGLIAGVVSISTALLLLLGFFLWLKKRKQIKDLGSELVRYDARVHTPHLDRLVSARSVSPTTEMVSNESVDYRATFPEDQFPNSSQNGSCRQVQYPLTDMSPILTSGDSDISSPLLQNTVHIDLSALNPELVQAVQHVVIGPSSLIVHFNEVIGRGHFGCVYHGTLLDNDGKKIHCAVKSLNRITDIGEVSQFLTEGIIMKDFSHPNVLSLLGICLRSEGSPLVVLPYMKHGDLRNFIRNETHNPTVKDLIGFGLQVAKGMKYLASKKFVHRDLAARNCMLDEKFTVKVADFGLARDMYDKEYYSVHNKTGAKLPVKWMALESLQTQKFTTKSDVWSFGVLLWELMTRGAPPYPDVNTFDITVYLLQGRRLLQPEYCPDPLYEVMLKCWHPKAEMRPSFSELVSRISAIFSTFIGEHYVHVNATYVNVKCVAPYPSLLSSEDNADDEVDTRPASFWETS

[2] = molecular target: T2, Human cMet antigen (human, UniProt P08581 25-932); test: ELISA, antigen coated at 1 ug/mL, VHH-Fc titrated
T2 construct: treated as one molecule; also called Human cMet-His antigen
T2 sequence (P08581 25-932): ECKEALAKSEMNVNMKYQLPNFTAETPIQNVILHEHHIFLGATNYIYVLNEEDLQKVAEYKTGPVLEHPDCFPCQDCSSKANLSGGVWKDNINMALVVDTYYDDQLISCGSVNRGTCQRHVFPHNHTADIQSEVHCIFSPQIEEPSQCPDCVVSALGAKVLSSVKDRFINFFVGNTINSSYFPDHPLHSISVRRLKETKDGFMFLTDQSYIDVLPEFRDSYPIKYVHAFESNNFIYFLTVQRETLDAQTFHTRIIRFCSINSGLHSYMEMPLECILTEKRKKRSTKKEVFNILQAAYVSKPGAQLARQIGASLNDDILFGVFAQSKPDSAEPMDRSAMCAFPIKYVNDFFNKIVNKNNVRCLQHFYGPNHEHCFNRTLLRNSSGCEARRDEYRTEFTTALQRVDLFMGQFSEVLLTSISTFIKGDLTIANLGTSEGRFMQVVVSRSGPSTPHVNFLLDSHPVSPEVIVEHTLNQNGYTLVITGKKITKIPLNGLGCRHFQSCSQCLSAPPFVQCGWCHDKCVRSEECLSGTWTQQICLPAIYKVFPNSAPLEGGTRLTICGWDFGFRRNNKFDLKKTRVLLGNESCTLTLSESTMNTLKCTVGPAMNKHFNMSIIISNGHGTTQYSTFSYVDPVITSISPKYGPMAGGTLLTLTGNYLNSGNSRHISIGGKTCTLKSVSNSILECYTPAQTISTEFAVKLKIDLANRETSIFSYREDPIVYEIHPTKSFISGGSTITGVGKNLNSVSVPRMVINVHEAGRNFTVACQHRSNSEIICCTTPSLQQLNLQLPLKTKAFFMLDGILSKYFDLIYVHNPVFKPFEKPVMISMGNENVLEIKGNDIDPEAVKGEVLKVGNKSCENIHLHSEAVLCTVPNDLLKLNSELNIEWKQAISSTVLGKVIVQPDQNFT

[3] = molecular target: T3, Cynomolgus monkey cMet antigen (cynomolgus monkey, UniProt A0A2K5UM36 25-932); test: ELISA, antigen coated at 1 ug/mL, VHH-Fc titrated
T3 construct: treated as one molecule; also called cynomolgus monkey cMet-His antigen; Cyno cMet
T3 sequence (A0A2K5UM36 entry or part of it limits assumed, form in doubt): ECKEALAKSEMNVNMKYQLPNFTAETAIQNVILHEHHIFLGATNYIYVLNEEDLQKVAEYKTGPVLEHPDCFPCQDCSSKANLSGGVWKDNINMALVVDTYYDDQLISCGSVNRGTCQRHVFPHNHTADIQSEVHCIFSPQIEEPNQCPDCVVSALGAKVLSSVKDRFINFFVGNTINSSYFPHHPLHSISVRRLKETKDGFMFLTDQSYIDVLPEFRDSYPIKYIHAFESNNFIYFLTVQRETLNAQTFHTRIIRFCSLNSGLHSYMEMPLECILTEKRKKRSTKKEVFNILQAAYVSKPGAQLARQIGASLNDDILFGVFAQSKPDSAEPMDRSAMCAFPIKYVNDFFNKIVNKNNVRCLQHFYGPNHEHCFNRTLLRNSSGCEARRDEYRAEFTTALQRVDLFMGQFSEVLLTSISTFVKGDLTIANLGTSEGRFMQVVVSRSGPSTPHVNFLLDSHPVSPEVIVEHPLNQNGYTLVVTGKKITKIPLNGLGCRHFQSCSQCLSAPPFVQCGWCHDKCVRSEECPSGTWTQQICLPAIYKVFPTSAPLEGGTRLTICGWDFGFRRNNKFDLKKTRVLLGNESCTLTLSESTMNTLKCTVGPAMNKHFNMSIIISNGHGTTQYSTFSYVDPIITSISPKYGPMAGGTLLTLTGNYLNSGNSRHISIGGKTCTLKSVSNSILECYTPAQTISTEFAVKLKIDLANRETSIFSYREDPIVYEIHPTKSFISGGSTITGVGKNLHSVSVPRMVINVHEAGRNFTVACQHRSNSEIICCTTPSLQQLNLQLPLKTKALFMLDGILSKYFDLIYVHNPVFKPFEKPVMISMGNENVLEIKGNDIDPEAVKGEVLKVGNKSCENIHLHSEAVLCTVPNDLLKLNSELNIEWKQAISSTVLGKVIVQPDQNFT

[4] = molecular target: T1, human cMet on cells; test: FACS, VHH-His on EBC-1 cells
[5] = molecular target: T1, human cMet on cells; test: FACS, VHH-His on EBC-1 cells (cell column empty in this row)
[6] = molecular target: T2, Human cMet antigen; test: SPR method I, antigen on CM5 chip, VHH-His injected, 1:1 model
[7] = molecular target: T3, Cynomolgus monkey cMet antigen; test: as above
[8] = molecular target: T4, Cyno EGFR antigen (SPR of Example 4.4) (cynomolgus monkey, UniProt A0A2K5WK39 25-645); test: as above
[9] = molecular target: T5, Human EGFR antigen (SPR of Example 4.4) (human, UniProt P00533 25-645); test: as above
[10] = molecular target: T6, human EGFR on cells (human, UniProt P00533 25-1210); test: FACS, VHH-His on CHOK1-huEGFR cells
T6 construct: whole, on cells; the cell line is named under assay; also called CHO-S-EGFR; CHOK1-huEGFR

[11] = molecular target: T6, human EGFR on cells; test: FACS, VHH-His on MDA-MB-468 cells
[12] = molecular target: T4, Cyno EGFR antigen (SPR of Example 4.4); test: SPR method II, antibody captured on Protein A chip, antigen injected, 1:1 model
[13] = molecular target: T5, Human EGFR antigen (SPR of Example 4.4); test: as above
[14] = molecular target: T1, human cMet on cells; test: FACS, VHH-His on MKN45 cells
[15] = molecular target: T1, human cMet on cells; test: FACS on EBC-1 cells
[16] = molecular target: T1, human cMet on cells; test: FACS, VHH-His on CHOK1-hucMet cells
[17] = molecular target: T1, human cMet on cells; test: FACS, VHH-His on MKN45 cells; remark: listed apart in the source
[18] = molecular target: T1, human cMet on cells; test: FACS, VHH-His on CHOK1-hucMet cells; remark: listed apart in the source
[19] = molecular target: T1, human cMet on cells; test: FACS, VHH-His on MKN45 cells; remark: listed apart in the source
[20] = molecular target: T2, Human cMet antigen; test: SPR method II, antibody captured on Protein A chip, antigen injected, 1:1 model
[21] = molecular target: T3, Cynomolgus monkey cMet antigen; test: as above

MFI value at the highest concentration [1]: 82200 MFI | ratio of MFI value at the highest concentration to that at the lowest concentration [1]: 1.12 | EC50 [2]: 0.108 nM | EC50 [3]: 0.105 nM
B1: V-n9A2 anti-cMet VHH-Fc (Fc fusion, not shown: a dimerising Fc or GST)
chain: QSQLAESGGGLVQSGGSLGLSCVASGFTISRSIMSWYRQPPGKERDWVASIGSAGNTNYVDSVKGRFTISRDVAKNTVYLQMNSLKPEDTAVYYCKTTLAVSFSEYWGQGTQVTVSS
notes: Bivalent VHH-Fc

EC50 [4]: 1.63 nM | Maximum MFI value [4]: 194000 MFI
B2: VHH9 (VHH, not shown: small tags and cut ends)
VHH: B1 chain with Q1E, A5L, S14P, G19R, P40A, A74S, V78L, K86R, P87A, Q112L
notes: Humanized 9A2 anti-cMet VHH-His

EC50 [5]: 2.11 nM
B3: VHH11 (VHH, not shown: small tags and cut ends)
VHH: B1 chain with A5V, Q13K, S14P, G19R, V73N, T77S, V78L, K86R, P87A, Q112L
notes: as for B2

Kd [6]: 16 nM | koff [6]: 0.0029 s⁻¹ | kon [6]: 181000 M⁻¹ s⁻¹ | Kd [7]: 70.3 nM | koff [7]: 0.0072 s⁻¹ | kon [7]: 102000 M⁻¹ s⁻¹ | EC50 [4]: 1.56 nM | Maximum MFI value [4]: 291000 MFI
B4: V-n9A2 anti-cMet VHH-His (VHH, not shown: small tags and cut ends)
VHH: B1 chain
notes: Monovalent parent VHH

Kd [8]: 17.2 nM | koff [8]: 0.01 s⁻¹ | kon [8]: 581000 M⁻¹ s⁻¹ | Kd [9]: 37.4 nM | koff [9]: 0.0258 s⁻¹ | kon [9]: 691000 M⁻¹ s⁻¹ | Maximum MFI value [10]: 2760 MFI | Maximum MFI value [11]: 5830 MFI | Maximum MFI value ([11]; record 2): 5160 MFI
B5: V-n10A1 anti-EGFR VHH-His (VHH, not shown: small tags and cut ends)
VHH: QVQLVESGGGLVQAGGSLRLSCAASGRTGSLHAMGWFRQAPGKERERVATLNLSDGSAVTADSVKGRFTISTDNTKNSVYLQMNSLKPEDTAVYYCTASRSPSGIRYYKPDYWGQGTQVTVSS
notes: Monovalent parent VHH

Kd [12]: 2.05 nM | koff [12]: 8.04e-05 s⁻¹ | kon [12]: 39200 M⁻¹ s⁻¹ | Kd [13]: 11.9 nM | koff [13]: 0.000392 s⁻¹ | kon [13]: 33000 M⁻¹ s⁻¹
B6: V-F42 (hu9B8_Fc)2 (Fc fusion, not shown: a dimerising Fc or GST)
chain: EVQLLESGGGLVQPGGSLRLSCAASGLTFSYYAMAWFRQAPGKEREFVAAINWNQGNTYNTDSVKGRFTISRDNSKNTVYLQMNSLTPEDTAVYYCAVRYNQASYLVARSSDYNYWGQGTLVTVSS
notes: dimeric VHH with an Fc tag at the C-terminus

MFI value at the highest concentration [1]: 40600 MFI | ratio of MFI value at the highest concentration to that at the lowest concentration [1]: 2.22 | EC50 [2]: 0.066 nM | EC50 [3]: 0.063 nM
B7: V-n7A12 anti-cMet VHH-Fc (Fc fusion, not shown: a dimerising Fc or GST)
chain: EVQLVESGGGLVQAGGSLRLSCVASGNIFSSNHMGWFRQAPGKQREFIAYITTREITNYADSVKGRFTISRDNTKNTVYLQMNVLKPEDTAVYYCIADQSREIRRSWGQGTQVTVSS
notes: Bivalent VHH-Fc

Maximum MFI value [14]: 57400 MFI
B8: 7A12-M3 (VHH, not shown: small tags and cut ends)
VHH: B7 chain with V12I, A14P, V23T, R45L, F47W, T74S, V84N, K86R, P87S

binding result [15]: binds
B9: anti-cMet biepitopic M-1 molecule (bispecific antibody, V domains shown)
V domain 1: B1 chain
V domain 2: B7 chain with V12I, V23T, N32Y, T74S, V84N, K86R, P87S, Q112L
notes: Asymmetric double-chain form

EC50 [16]: 0.809 nM | Maximum MFI value [16]: 63400 MFI
B10: dpzn7A12m4.m1_3 (VHH, not shown: small tags and cut ends)
VHH: B7 chain with V12I, V23T, N32Y, T74A, V84S, K86R, Q112L
notes: Humanized + PTM removal + primary immunogenicity removal, anti-cMet VHH-His

EC50 [17]: 4.11 nM | Maximum MFI value [17]: 44700 MFI
B11: 7A12-M4 (VHH, not shown: small tags and cut ends)
VHH: B7 chain with V12I, V23T, T74S, V84N, K86R, P87S, Q112L
notes: Humanized anti-cMet VHH-His

EC50 [16]: 0.716 nM | Maximum MFI value [16]: 73900 MFI
B12: dpzn7A12m4.m1_1 (VHH, not shown: small tags and cut ends)
VHH: B7 chain with V12I, V23T, N32Y, T74S, V78L, V84S, K86R, P87A, Q112L
notes: as for B10

EC50 [18]: 2.1 nM
B13: dpzn7A12m4.ml_1.m1 (VHH, not shown: small tags and cut ends)
VHH: B7 chain with A14P, V23T, N32Y, T74S, V78L, V84S, K86R, P87A, Q112L
notes: Humanized + PTM removal + secondary immunogenicity removal, anti-cMet VHH-His; also called hu7A12

EC50 [19]: 3.76 nM | Maximum MFI value [19]: 35600 MFI | EC50 [17]: 3.76 nM | Maximum MFI value [17]: 35600 MFI | Kd [6]: 0.301 nM | koff [6]: 0.000153 s⁻¹ | kon [6]: 509000 M⁻¹ s⁻¹ | Kd [7]: 96 nM | koff [7]: 0.00439 s⁻¹ | kon [7]: 45800 M⁻¹ s⁻¹ | EC50 [16]: 1.01 nM | Maximum MFI value [16]: 74200 MFI | EC50 [18]: 1.94 nM
B14: V-n7A12 anti-cMet VHH-His (VHH, not shown: small tags and cut ends)
VHH: B7 chain
notes: Monovalent parent VHH

Maximum MFI value [14]: 36700 MFI
B15: 7A12-M2 (VHH, not shown: small tags and cut ends)
VHH: EVQLVESGGGLIQPGGSLRLSCKASGNIFSSNHMGWFRQAPGKQLEWVAYITTREITNYADSVKGRFTISRDNSKNTVYLQMNNLRSEDTAVYYCIADQSREIRRSWGQGTLVTVSS

EC50 [17]: 88.1 nM | Maximum MFI value [17]: 56600 MFI
B16: 7A12-M1 (VHH, not shown: small tags and cut ends)
VHH: B15 VHH with I12V, K23A, F37V, Q44G, N84S, S87A
notes: Humanized anti-cMet VHH-His

Kd [8]: 7.36 nM | koff [8]: 0.00384 s⁻¹ | kon [8]: 522000 M⁻¹ s⁻¹ | Kd [9]: 23.2 nM | koff [9]: 0.00536 s⁻¹ | kon [9]: 232000 M⁻¹ s⁻¹ | EC50 [11]: 15 nM | Maximum MFI value [11]: 111000 MFI
B17: V-n5B10 anti-EGFR VHH-His (VHH, not shown: small tags and cut ends)
VHH: AVQLVDSGGGLVQPGGSLRLDCSASGTIIGTYTMAWYRQAPGKQREMVAIITPGGGSHHADSVKGRFTISRDNGKSTVYLQMSSLKFEDTAVYYCNAKARWGTTEYWGQGTQVTVSS
notes: Monovalent parent VHH

Kd [20]: 0.681 nM | koff [20]: 7.38e-05 s⁻¹ | kon [20]: 108000 M⁻¹ s⁻¹ | Kd [21]: 0.584 nM | koff [21]: 7.14e-05 s⁻¹ | kon [21]: 122000 M⁻¹ s⁻¹
B18: Reference benchmark antibody ABT-700 (antibody, V domains shown)
VH: QVQLVQSGAEVKKPGASVKVSCKASGYIFTAYTMHWVRQAPGQGLEWMGWIKPNNGLANYAQKFQGRVTMTRDTSISTAYMELSRLRSDDTAVYYCARSEITTEFDYWGQGTLVTVSS
VL: DIVMTQSPDSLAVSLGERATINCKSSESVDSYANSFLHWYQQKPGQPPKLLIYRASTRESGVPDRFSGSGSGTDFTLTISSLQAEDVAVYYCQQSKEDPLTFGGGTKVEIKR

MFI value at the highest concentration [1]: 77200 MFI | ratio of MFI value at the highest concentration to that at the lowest concentration [1]: 1.14
B19: V-n9A10 anti-cMet VHH-Fc (Fc fusion, not shown: a dimerising Fc or GST)
chain: QVQLVESGGGLVQPGGSLRLSCEASGFTFSSYVMSWYRQAPGKERELVALISSTTGSSTKYGDSVKGRFTISRDNAKNTVYLQMNSLKPEDTAVYYCNAMIGWNNHWGQGTHVTVSS
